Results as given in US20140134647A1 (LA JOLLA INSTITUTE FOR ALLERGY AND IMMUNOLOGY, published 2014).
Values joined by “and” are separate entries in the source; they are usually repeats but may differ in a detail not shown here. Identical values can stand only once. Like-named read-outs stand apart in the source and are kept apart here.

Assays:
[1] = target: TRAIL-R2-Fc double mutant L110A/L114A (human) (UniProt O14763)
[2] = target: TRAIL-R2-Fc mutant D148A (human) (UniProt O14763)
[3] = target: TRAIL-R2-Fc mutant F112A (human) (UniProt O14763)
Sequence of TRAIL-R2-Fc mutant F112A (human) (O14763 other isoform, or with tags, fused parts or gaps F112A F112A limits assumed): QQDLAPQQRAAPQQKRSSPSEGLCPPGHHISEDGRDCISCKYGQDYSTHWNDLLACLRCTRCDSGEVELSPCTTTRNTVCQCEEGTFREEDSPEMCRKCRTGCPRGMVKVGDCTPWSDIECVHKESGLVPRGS

[4] = target: TRAIL-R2-Fc mutant V167A (human) (UniProt O14763)
Sequence of TRAIL-R2-Fc mutant V167A (human) (O14763 other isoform, or with tags, fused parts or gaps V167A V167A limits assumed): as the sequence (O14763 other isoform, or with tags, fused parts or gaps F112A F112A limits assumed) above, with A55F, V110A counted along it

[5] = target: TRAIL-R2-Fc double mutant L110A/L114A (human) (UniProt O14763); test: SPR, alanine mutant
[6] = target: CD155-Fc (CD155/PVR ectodomain Fc fusion) (human) (UniProt P15151); test: SPR; CD155-Fc immobilized, UL141 analyte
Sequence of CD155-Fc (CD155/PVR ectodomain Fc fusion) (human) (P15151 21-343 limits assumed): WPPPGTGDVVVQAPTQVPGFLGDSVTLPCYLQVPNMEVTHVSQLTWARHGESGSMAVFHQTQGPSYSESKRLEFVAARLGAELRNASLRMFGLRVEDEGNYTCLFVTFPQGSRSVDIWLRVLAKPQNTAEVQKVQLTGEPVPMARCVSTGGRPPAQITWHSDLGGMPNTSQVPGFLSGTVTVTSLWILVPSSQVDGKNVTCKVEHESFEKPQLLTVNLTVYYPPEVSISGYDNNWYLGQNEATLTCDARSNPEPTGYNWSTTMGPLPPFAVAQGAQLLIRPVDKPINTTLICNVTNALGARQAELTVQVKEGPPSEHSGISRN

[7] = target: TRAIL-R1-Fc (human TRAIL-R1/DR4 ectodomain Fc fusion) (human) (UniProt O00220); test: SPR; TRAIL-R1-Fc immobilized, UL141 analyte
Sequence of TRAIL-R1-Fc (human TRAIL-R1/DR4 ectodomain Fc fusion) (human) (O00220 24-239): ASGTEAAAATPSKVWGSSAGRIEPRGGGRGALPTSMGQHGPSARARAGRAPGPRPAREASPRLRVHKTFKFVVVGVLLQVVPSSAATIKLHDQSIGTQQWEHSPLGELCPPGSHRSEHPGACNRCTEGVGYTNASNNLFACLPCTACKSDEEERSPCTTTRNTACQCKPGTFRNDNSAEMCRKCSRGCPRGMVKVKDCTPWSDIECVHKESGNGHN

[8] = target: TRAIL-R2-Fc (human TRAIL-R2 aa 58-184, thrombin site, Fc of human IgG1), wild type (human) (UniProt O14763); test: SPR; TRAIL-R2-Fc immobilized, UL141 analyte
Sequence of TRAIL-R2-Fc (human TRAIL-R2 aa 58-184, thrombin site, Fc of human IgG1), wild type (human) (O14763 other isoform, or with tags, fused parts or gaps limits assumed): as the sequence (O14763 other isoform, or with tags, fused parts or gaps F112A F112A limits assumed) above, with A55F counted along it

[9] = target: CD155-Fc (CD155/PVR ectodomain Fc fusion) (human) (UniProt P15151); test: SPR, KDave; CD155-Fc immobilized, UL141 analyte
[10] = target: TRAIL-R2-Fc (human TRAIL-R2 aa 58-184, thrombin site, Fc of human IgG1), wild type (human) (UniProt O14763); test: SPR, KDave; TRAIL-R2-Fc immobilized, UL141 analyte
[11] = target: CD155-Fc (CD155/PVR ectodomain Fc fusion) (human) (UniProt P15151); test: SPR, kinetic 1:1 fit; CD155-Fc immobilized, UL141 analyte
[12] = target: TRAIL-R1-Fc (human TRAIL-R1/DR4 ectodomain Fc fusion) (human) (UniProt O00220); test: SPR, kinetic 1:1 fit; TRAIL-R1-Fc immobilized, UL141 analyte
[13] = target: TRAIL-R2-Fc (human TRAIL-R2 aa 58-184, thrombin site, Fc of human IgG1), wild type (human) (UniProt O14763); test: SPR, kinetic 1:1 fit; TRAIL-R2-Fc immobilized, UL141 analyte
[14] = target: TRAIL-R2-Fc (human TRAIL-R2 aa 58-184, thrombin site, Fc of human IgG1), wild type (human) (UniProt O14763); test: SPR; TRAIL-R2-Fc captured on anti-human Fc chip, UL141 analyte
[15] = target: TRAIL-R1-Fc (human TRAIL-R1/DR4 ectodomain Fc fusion) (human) (UniProt O00220); test: SPR, steady-state (KDeq); TRAIL-R1-Fc immobilized, UL141 analyte
[16] = target: TRAIL-R2-Fc double mutant E78A/D109A (human) (UniProt O14763); test: SPR; TRAIL-R2-Fc mutant captured on anti-human Fc chip, UL141 analyte
Sequence of TRAIL-R2-Fc double mutant E78A/D109A (human) (O14763 other isoform, or with tags, fused parts or gaps E78A D109A E78A D109A limits assumed): as the sequence (O14763 other isoform, or with tags, fused parts or gaps F112A F112A limits assumed) above, with E21A, D52A, A55F counted along it

[17] = target: TRAIL-R2-Fc double mutant L110A/L114A (human) (UniProt O14763); test: as above
[18] = target: TRAIL-R2-Fc mutant D148A (human) (UniProt O14763); test: as above
[19] = target: TRAIL-R2-Fc mutant F112A (human) (UniProt O14763); test: as above
[20] = target: TRAIL-R2-Fc mutant K155A (human) (UniProt O14763); test: as above
Sequence of TRAIL-R2-Fc mutant K155A (human) (O14763 other isoform, or with tags, fused parts or gaps K155A K155A limits assumed): as the sequence (O14763 other isoform, or with tags, fused parts or gaps F112A F112A limits assumed) above, with A55F, K98A counted along it

[21] = target: TRAIL-R2-Fc mutant M152A (human) (UniProt O14763); test: as above
Sequence of TRAIL-R2-Fc mutant M152A (human) (O14763 other isoform, or with tags, fused parts or gaps M152A M152A limits assumed): as the sequence (O14763 other isoform, or with tags, fused parts or gaps F112A F112A limits assumed) above, with A55F, M95A counted along it

[22] = target: TRAIL-R2-Fc mutant P150A (human) (UniProt O14763); test: as above
Sequence of TRAIL-R2-Fc mutant P150A (human) (O14763 other isoform, or with tags, fused parts or gaps P150A P150A limits assumed): as the sequence (O14763 other isoform, or with tags, fused parts or gaps F112A F112A limits assumed) above, with A55F, P93A counted along it

[23] = target: TRAIL-R2-Fc mutant R154A (human) (UniProt O14763); test: as above
Sequence of TRAIL-R2-Fc mutant R154A (human) (O14763 other isoform, or with tags, fused parts or gaps R154A R154A limits assumed): as the sequence (O14763 other isoform, or with tags, fused parts or gaps F112A F112A limits assumed) above, with A55F, R97A counted along it

[24] = target: TRAIL-R2-Fc mutant V167A (human) (UniProt O14763); test: as above
[25] = target: TRAIL-R2-Fc triple mutant M152A/R154A/K155A (human) (UniProt O14763); test: as above
Sequence of TRAIL-R2-Fc triple mutant M152A/R154A/K155A (human) (O14763 other isoform, or with tags, fused parts or gaps M152A R154A K155A M152A R154A K155A limits assumed): as the sequence (O14763 other isoform, or with tags, fused parts or gaps F112A F112A limits assumed) above, with A55F, M95A, R97A, K98A counted along it

[26] = target: TRAIL-R1-Fc (human TRAIL-R1/DR4 ectodomain Fc fusion) (human) (UniProt O00220); test: SPR, average of KDeq and KD (KDave); TRAIL-R1-Fc immobilized, UL141 analyte
[27] = target: CD155-Fc (CD155/PVR ectodomain Fc fusion) (human) (UniProt P15151)
[28] = target: CD155-Fc (CD155/PVR ectodomain Fc fusion) (human) (UniProt P15151); test: SPR; CD155-Fc immobilized, pre-formed UL141-TRAIL-R2 complex analyte
[29] = target: CD155-Fc (CD155/PVR ectodomain Fc fusion) (human) (UniProt P15151); test: SPR, KDave; CD155-Fc immobilized, pre-formed UL141-TRAIL-R2 complex analyte
[30] = target: T1, mouse TRAIL-R2:Fc (extracellular domain of mouse TRAIL-R2 fused to human IgG constant domain) (mouse; human, UniProt Q9QZM4 53-180; P01857 104-330 = IgG part); test: ELISA-based assay
T1 construct: extracellular domain;domain: human IgG VH constant domain; also called mTRAIL-R2:Fc
T1 sequence (Q9QZM4 other isoform, or with tags, fused parts or gaps limits assumed): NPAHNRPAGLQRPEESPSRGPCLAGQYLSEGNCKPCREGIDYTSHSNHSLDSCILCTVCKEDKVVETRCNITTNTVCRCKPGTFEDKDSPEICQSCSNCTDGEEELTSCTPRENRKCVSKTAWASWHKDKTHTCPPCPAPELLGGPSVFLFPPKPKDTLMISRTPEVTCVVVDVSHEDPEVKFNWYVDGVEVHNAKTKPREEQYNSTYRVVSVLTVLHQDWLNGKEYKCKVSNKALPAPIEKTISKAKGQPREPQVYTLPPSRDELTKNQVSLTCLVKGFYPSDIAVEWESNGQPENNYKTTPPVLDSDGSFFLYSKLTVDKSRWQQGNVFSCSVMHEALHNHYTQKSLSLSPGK

[31] = target: T2, TRAIL-R2 (DR5) ectodomain monomer, aa 58-184, without Fc (human, UniProt O14763 58-184); test: SPR; UL141-Fc immobilized, TRAIL-R2 analyte
T2 construct: range 58-184; also called monomeric TRAIL-R2; TRAIL-R2 monomer
T2 sequence (O14763 58-184 limits assumed): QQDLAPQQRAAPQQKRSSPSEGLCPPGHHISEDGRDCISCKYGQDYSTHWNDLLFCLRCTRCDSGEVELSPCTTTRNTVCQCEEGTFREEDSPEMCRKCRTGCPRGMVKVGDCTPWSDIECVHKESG

[32] = target: T2, TRAIL-R2 (DR5) ectodomain monomer, aa …; test: SPR, kinetic 1:1 fit; UL141-Fc immobilized, TRAIL-R2 analyte
[33] = target: T2, TRAIL-R2 (DR5) ectodomain monomer, aa …; test: SPR, steady-state (KDeq); UL141-Fc immobilized, TRAIL-R2 analyte
[34] = target: T2, TRAIL-R2 (DR5) ectodomain monomer, aa …; test: SPR, average of KDeq and KD (KDave); UL141-Fc immobilized, TRAIL-R2 analyte

Sequence of TRAIL-R2-Fc mutant D148A (human) (O14763 other isoform, or with tags, fused parts or gaps D148A D148A limits assumed): as the sequence (O14763 other isoform, or with tags, fused parts or gaps F112A F112A limits assumed) above, with A55F, D91A counted along it
Sequence of TRAIL-R2-Fc double mutant L110A/L114A (human) (O14763 other isoform, or with tags, fused parts or gaps L110A L114A L110A L114A limits assumed): as the sequence (O14763 other isoform, or with tags, fused parts or gaps F112A F112A limits assumed) above, with L53A, A55F, L57A counted along it

Q: Which x-fold reduction in binding compared to wild type [1] does the source give for “UL141 ectodomain (HCMV FIX strain) with C-terminal poly-histidine tag (ligand)” here?
A: 7.2 fold

Q: What about the x-fold reduction in binding compared to wild type [2] of the same molecule?
A: 9.2 fold

Q: What about the x-fold reduction in binding compared to wild type [3] of the same molecule?
A: 106 fold

Q: And the x-fold reduction in binding compared to wild type [4]?
A: 2.6 fold

Q: And the fold decrease in binding affinity against wild-type [5]?
A: 7 fold

Q: And the koff [6]?
A: 0.000346 s⁻¹

Q: What about the kon [6] of the same molecule?
A: 176000 M⁻¹ s⁻¹

Q: What about the koff [7] of the same molecule?
A: 0.014 s⁻¹

Q: And the kon [7]?
A: 6020 M⁻¹ s⁻¹

Q: And the koff [8]?
A: 7.21e-05 s⁻¹

Q: What about the kon [8] of the same molecule?
A: 12100 M⁻¹ s⁻¹

Q: And the Kd [9]?
A: 2 nM

Q: And the Kd [10]?
A: 6 nM

Q: What about the Kd [11] of the same molecule?
A: 1.97 nM

Q: What about the Kd [12] of the same molecule?
A: 2330 nM

Q: And the Kd [13]?
A: 5.96 nM

Q: And the Kd [14]?
A: 6 nM and 5.95 nM

Q: And the koff [14]?
A: 7.21e-05 s⁻¹

Q: And the kon [14]?
A: 12100 M⁻¹ s⁻¹

Q: What about the Kd [15] of the same molecule?
A: 2.27 nM

Q: And the Kd [16]?
A: 60.4 nM

Q: And the fold lower binding than wild-type [16]?
A: 10 fold

Q: And the koff [16]?
A: 0.00151 s⁻¹

Q: And the kon [16]?
A: 25000 M⁻¹ s⁻¹

Q: And the Kd [17]?
A: 42.7 nM

Q: What about the fold lower binding than wild-type [17] of the same molecule?
A: 10 fold

Q: What about the koff [17] of the same molecule?
A: 0.00064 s⁻¹

Q: What about the kon [17] of the same molecule?
A: 15000 M⁻¹ s⁻¹

Q: What about the Kd [18] of the same molecule?
A: 55.3 nM

Q: And the fold lower binding than wild-type [18]?
A: 10 fold

Q: What about the koff [18] of the same molecule?
A: 0.0013 s⁻¹

Q: What about the kon [18] of the same molecule?
A: 23500 M⁻¹ s⁻¹

Q: And the Kd [19]?
A: 630 nM

Q: And the fold lower binding than wild-type [19]?
A: 100 fold

Q: What about the koff [19] of the same molecule?
A: 0.00566 s⁻¹

Q: And the kon [19]?
A: 8980 M⁻¹ s⁻¹

Q: What about the Kd [20] of the same molecule?
A: 7.74 nM

Q: What about the koff [20] of the same molecule?
A: 0.00038 s⁻¹

Q: What about the kon [20] of the same molecule?
A: 49100 M⁻¹ s⁻¹

Q: What about the Kd [21] of the same molecule?
A: 7.49 nM

Q: What about the koff [21] of the same molecule?
A: 0.000382 s⁻¹

Q: What about the kon [21] of the same molecule?
A: 51000 M⁻¹ s⁻¹

Q: What about the Kd [22] of the same molecule?
A: 8.32 nM

Q: And the koff [22]?
A: 0.000391 s⁻¹

Q: What about the kon [22] of the same molecule?
A: 47000 M⁻¹ s⁻¹

Q: What about the Kd [23] of the same molecule?
A: 6.26 nM

Q: And the koff [23]?
A: 0.000243 s⁻¹

Q: What about the kon [23] of the same molecule?
A: 38800 M⁻¹ s⁻¹

Q: And the Kd [24]?
A: 15.5 nM

Q: And the fold lower binding than wild-type [24]?
A: 2.5 fold

Q: What about the koff [24] of the same molecule?
A: 0.00048 s⁻¹

Q: And the kon [24]?
A: 31000 M⁻¹ s⁻¹

Q: And the Kd [25]?
A: 7.39 nM

Q: What about the koff [25] of the same molecule?
A: 0.00027 s⁻¹

Q: What about the kon [25] of the same molecule?
A: 36500 M⁻¹ s⁻¹

Q: What about the Kd [26] of the same molecule?
A: 2300 nM

Q: What does the source list for “pre-formed UL141-TRAIL-R2 protein complex (from UniProt O14763 58-184)”?
A: Kd [27]: 2.19 nM; koff [28]: 0.000333 s⁻¹; kon [28]: 152000 M⁻¹ s⁻¹; Kd [29]: 2 nM

B1: UL141-Fc (UL141 ectodomain fused to the Fc region of human IgG1) (Fc fusion)
chain: DIAEKMWAENYETTSPAPVLVAEGEQVTIPCTVMTHSWPMVSIRARFCRSHDGSDELILDAVKGHRLMNGLQYRLPYATWNFSQLHLGQIFSLTFNVSTDTAGMYECVLRNYSHGLIMQRFVILTQLETLSRPDEPCCTPALGRYSLGDQIWSPTPWRLRNHDCGMYRGFQRNYFYIGRADAEDCWKPACPDEEPDRCWTVIQRYRLPGDCYRSQPHPPKFLPVTPAPPADIDTGMS
Q: Does B1 bind [30]?
A: no binding

Q: And the koff [31]?
A: 0.00564 s⁻¹

Q: And the kon [31]?
A: 264000 M⁻¹ s⁻¹

Q: And the Kd [32]?
A: 21.4 nM

Q: And the Kd [33]?
A: 19.8 nM

Q: What about the Kd [34] of the same molecule?
A: 20 nM
